From the supplement of paper PMC7125110
± gives the standard error. For some assays here: This sample holds only a part of the variants without activity.

B1: glmS ribozyme (parent)
chain: AUAAAAGCGCCAGAACUACAGAAAUGUAGUUGACGAGGAGGAGGUUUAUCGAAUUUUCGGCGGAUGCCUCCAAA

What was measured:
Conditions in all cases: with glucosamine-6-phosphate
glucosamine-6-phosphate [1] = variants of: B1; assay: kcat; higher = faster cleavage; RNA array
In short: (§1)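 Ribozyme variants carrying barcodes were transcribed in situ on sequenced MiSeq chips by E. coli RNA polymerase and tracked at 37 °C with a hybridised Cy3 probe. They were exposed to 40 μM to 10 mM glucosamine-6-phosphate in HEPES/KCl/Mg(OAc)2 buffer. kobs came from exponential decay fits of normalised per-tile medians, and kcat and KM from weighted Michaelis–Menten fits.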

glucosamine-6-phosphate [2] = variants of: B1; assay: self-cleavage kobs at 40 uM GlcN6P; higher = faster cleavage; RNA array
In short: as §1

glucosamine-6-phosphate [3] = variants of: B1; assay: self-cleavage kobs at 160 uM GlcN6P; higher = faster cleavage; RNA array
In short: as §1

glucosamine-6-phosphate [4] = variants of: B1; assay: self-cleavage kobs at 2500 uM GlcN6P; higher = faster cleavage; RNA array
In short: as §1

glucosamine-6-phosphate [5] = variants of: B1; assay: self-cleavage kobs at 10000 uM GlcN6P; higher = faster cleavage; RNA array
In short: as §1

glucosamine-6-phosphate [6] = variants of: B1; assay: KM; higher = weaker cofactor use; RNA array
In short: as §1

glucosamine-6-phosphate [7] = variants of: B1; assay: self-cleavage kobs at 640 uM GlcN6P; higher = faster cleavage; RNA array
In short: as §1

Variant	kcat (glucosamine-6-phosphate [1]) [s⁻¹]	self-cleavage kobs at 40 uM GlcN6P (glucosamine-6-phosphate [2]) [s⁻¹]	self-cleavage kobs at 160 uM GlcN6P (glucosamine-6-phosphate [3]) [s⁻¹]	self-cleavage kobs at 2500 uM GlcN6P (glucosamine-6-phosphate [4]) [s⁻¹]	self-cleavage kobs at 10000 uM GlcN6P (glucosamine-6-phosphate [5]) [s⁻¹]	KM (glucosamine-6-phosphate [6]) [µM]	self-cleavage kobs at 640 uM GlcN6P (glucosamine-6-phosphate [7]) [s⁻¹]
A6G C11U	2.61e-05 ± 3.3e-06	< 1e-05	< 1e-05	2.57e-05 ± 1.2e-05	2.38e-05 ± 7.5e-06	–	–
C16G A33G C71U	1.51e-05 ± 7.7e-07	–	–	–	< 1e-05	137 ± 30	–
G37C U57G	1.13e-05 ± 4.5e-06	–	< 1e-05	–	< 1e-05	–	–
G44C A53U	7.99e-05 ± 9.3e-07	–	–	5.52e-05 ± 1.4e-05	7.13e-05 ± 1.1e-05	1170 ± 57	–
A6G U69G	1.01e-05 ± 1.6e-06	< 1e-05	–	–	–	–	–
C16G C70G	5.91e-05 ± 5.2e-06	–	–	6.29e-05 ± 9.7e-06	5.09e-05 ± 9.5e-06	–	5.48e-05 ± 9.9e-06
A33C G59U	< 1e-05	–	< 1e-05	–	< 1e-05	–	–
A12G U69G	7.83e-05 ± 2.6e-06	–	–	7.46e-05 ± 1.5e-05	7.47e-05 ± 1.1e-05	285 ± 71	5.05e-05 ± 1.9e-05
G29U C71G	0.000186 ± 4.6e-05	3.23e-05 ± 9.4e-06	6.19e-05 ± 9.3e-06	0.000186 ± 2.6e-05	0.000186 ± 1.9e-05	–	8.34e-05 ± 7.2e-06
G51U C67G	< 1e-05	–	–	–	–	–	–
A14U G32C C71A	3.18e-05 ± 4.6e-06	< 1e-05	–	–	3.33e-05 ± 1.2e-05	–	–
G37A A39C	0.00108 ± 0.0001	–	3.21e-05 ± 1.1e-05	0.000399 ± 6e-05	0.000742 ± 0.00013	4350 ± 560	0.000144 ± 1.8e-05
U54A C61U	3.19e-05 ± 4.4e-07	< 1e-05	–	–	2.74e-05 ± 1e-05	1620 ± 86	–
A12C A52G	0.000882 ± 0.00021	2.37e-05 ± 1e-05	4.98e-05 ± 1.3e-05	0.000359 ± 6.3e-05	0.00082 ± 0.00011	2290 ± 880	0.000216 ± 2.4e-05
A64U C71G	1.96e-05 ± 1.5e-06	–	–	–	–	–	–
A12G C16G	0.000144 ± 1.3e-05	–	–	3.92e-05 ± 1.4e-05	8.35e-05 ± 1.2e-05	7160 ± 1300	–
A12G C16A	3.87e-05 ± 9.1e-07	< 1e-05	–	–	3.41e-05 ± 6.7e-06	1330 ± 200	–
A15U U49G C50G G63A	2.96e-05 ± 6.8e-06	< 1e-05	–	–	–	–	–
G44U A53C	0.000114 ± 1.6e-05	–	–	8.9e-05 ± 1.7e-05	9.5e-05 ± 1.6e-05	1360 ± 610	–

Variant	kcat (glucosamine-6-phosphate [1]) [s⁻¹]	self-cleavage kobs at 40 uM GlcN6P (glucosamine-6-phosphate [2]) [s⁻¹]	self-cleavage kobs at 160 uM GlcN6P (glucosamine-6-phosphate [3]) [s⁻¹]	self-cleavage kobs at 2500 uM GlcN6P (glucosamine-6-phosphate [4]) [s⁻¹]	self-cleavage kobs at 10000 uM GlcN6P (glucosamine-6-phosphate [5]) [s⁻¹]	KM (glucosamine-6-phosphate [6]) [µM]	self-cleavage kobs at 640 uM GlcN6P (glucosamine-6-phosphate [7]) [s⁻¹]
G59A C67G	1.27e-05 ± 2.9e-06	–	–	–	–	–	–
G37A C71G	0.000188 ± 2.3e-05	–	3.34e-05 ± 1.4e-05	9.24e-05 ± 9.5e-06	0.000155 ± 1.4e-05	2370 ± 690	4.08e-05 ± 7.8e-06
G13U C70A	3.03e-05 ± 5.4e-06	–	–	3.54e-05 ± 9.8e-06	2.01e-05 ± 1e-05	–	3.7e-05 ± 1.1e-05
U46A C67A	0.00257 ± 0.00048	8.65e-05 ± 2.9e-05	–	0.00266 ± 0.00097	0.00209 ± 0.0006	1060 ± 330	0.000988 ± 0.0002
G37C C58A G66A C70A C71A	2.19e-05 ± 8.6e-06	–	–	–	–	–	–
A14G U65G	0.00446 ± 0.00028	4.37e-05 ± 6.7e-06	0.000193 ± 2.1e-05	0.00182 ± 0.00016	0.00321 ± 0.00033	3780 ± 310	0.000633 ± 5.3e-05
G13U U31G	0.000294 ± 0.0001	–	2.89e-05 ± 1.3e-05	0.000226 ± 2.7e-05	0.000207 ± 2.6e-05	–	4.24e-05 ± 8.5e-06
G38A U69G	3.24e-05 ± 5.7e-06	–	–	3.53e-05 ± 1.3e-05	–	–	–
A6C A12U	0.000292 ± 1.8e-05	–	–	0.000157 ± 1.8e-05	0.000227 ± 2.1e-05	2560 ± 310	5.62e-05 ± 7.4e-06
A33U U47C	3.28e-05 ± 1.2e-05	< 1e-05	–	–	3.01e-05 ± 1.1e-05	–	–
A52G U65G	0.000271 ± 0.00011	–	–	8.89e-05 ± 9.9e-06	0.00022 ± 3e-05	–	5.52e-05 ± 9.3e-06
G44U U47G	1.56e-05 ± 2.1e-07	–	–	–	–	2560 ± 150	–
U65C C68A	< 1e-05	< 1e-05	–	–	–	–	–
U55A A64C	0.000188 ± 3.5e-05	–	–	0.000144 ± 2.3e-05	0.000149 ± 1.3e-05	–	2.82e-05 ± 1.2e-05
G37A C67A	0.000407 ± 4.2e-05	–	–	0.000258 ± 4e-05	0.000336 ± 4.8e-05	1680 ± 370	0.000119 ± 2e-05
G37A C67U	0.000574 ± 0.0001	–	4.58e-05 ± 1.1e-05	0.00036 ± 4.6e-05	0.000449 ± 4.9e-05	2310 ± 720	0.000109 ± 1.5e-05
U46G C67A	0.00184 ± 0.00032	0.000105 ± 1.1e-05	0.000224 ± 3.9e-05	0.00146 ± 0.00022	0.00173 ± 0.00021	818 ± 220	0.000783 ± 0.0001
U45C C67U C68A	4.01e-05 ± 3.3e-06	–	–	–	–	533 ± 230	–
